Measured values: patent US20200277377A1 (WUXI BIOLOGICS SHANGHAI, published 2020)

T1: monkey CTLA-4 (Example 3 ELISA, construct not stated) (cynomolgus monkey, UniProt G7PL88 36-161)
T1 construct: also called cyno CTLA-4
T1 sequence: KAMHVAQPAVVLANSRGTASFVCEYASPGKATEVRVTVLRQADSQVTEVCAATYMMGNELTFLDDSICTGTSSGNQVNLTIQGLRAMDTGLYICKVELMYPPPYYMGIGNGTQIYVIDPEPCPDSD

T2: human CTLA-4 (Example 3 ELISAs, construct not stated) (human, UniProt P16410 36-161)
T2 sequence (looked up): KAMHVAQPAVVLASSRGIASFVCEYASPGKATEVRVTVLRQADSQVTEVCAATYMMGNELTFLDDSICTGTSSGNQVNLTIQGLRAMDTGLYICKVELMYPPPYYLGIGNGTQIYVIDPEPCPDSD

T3: human CTLA-4.ECD-6×His (human, UniProt P16410 36-161)
T3 construct: extracellular domain; also called WBP316.hCTLA-4.ECD-6×His; hCTLA4-His (WT)
T3 sequence: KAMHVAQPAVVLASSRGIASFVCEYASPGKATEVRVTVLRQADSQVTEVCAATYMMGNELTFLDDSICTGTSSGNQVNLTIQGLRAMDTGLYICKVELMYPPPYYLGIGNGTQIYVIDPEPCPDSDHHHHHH

T4: biotinylated human CTLA-4 (Example 3 FACS competition) (human, UniProt P16410 36-161, limits assumed, biotinylated (sites not given))
T4 sequence (looked up): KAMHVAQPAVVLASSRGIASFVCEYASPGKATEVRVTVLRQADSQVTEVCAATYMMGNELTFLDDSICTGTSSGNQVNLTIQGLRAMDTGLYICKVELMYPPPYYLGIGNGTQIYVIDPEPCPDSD

T5: full length human CTLA-4 on cells (human, UniProt P16410 36-223)
T5 construct: whole, on cells; also called CTLA-4-expressing cell line
T5 sequence (looked up): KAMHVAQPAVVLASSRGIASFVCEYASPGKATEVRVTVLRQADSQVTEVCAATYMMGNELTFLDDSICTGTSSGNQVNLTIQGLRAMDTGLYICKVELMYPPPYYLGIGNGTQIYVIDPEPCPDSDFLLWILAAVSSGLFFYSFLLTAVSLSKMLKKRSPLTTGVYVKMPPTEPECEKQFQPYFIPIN

B1: W3162-1.101.2 xAb.IgG1 (antibody, V domains shown)
VH: EEQLVESGGGLVQPGKSLKLSCSASGFTFRSSAMHWIRQPPGKGLDWVAFISSGGDTAYADAVKGRFIVSRDNAENTLFLQLNSLKSEDTAIYYCVRMERIPTWGQGVMVTVSS
VL: DIVLTQSPVLAVSLGQRATISCRASQSVSISSINLIHWYQQRPGQQPKLLIYRTSNLASGIPARFSGSGSGTDFTLSIDPVQADDVADYYCQQSRESPLTFGSGTKLEIK
notes: Chimeric: rat variable regions fused with constant region of human antibody (label xAb.IgG1)
B2: W3162-1.146.19 xAb.IgG1 (antibody, V domains shown)
VH: EVQLQESGPGLVKPSQSLSLTCSVTYHTITSGYDWTWIRKFPGNQMEWMGYISYSGNTNYNPSLKSRISITRDTSKNQFFLHLNSVTSEDTATYYCASMMVPHYYVMDAWGQGASVTVSS
VL: DVVLTQTPPTSSATIGQSVSISCRSSQSLLNSDGNTYLYWYLQRPSQSPQLLIYLVSKLGSGVPNRFSGSGSGTDFTLKISGVEAEDLGLYYCVQGTHDPWTFGGGTKLELK
notes: as for B1
B3: W3162-1.145.10 xAb.IgG1 (antibody, V domains shown)
VH: EVQLVESGGGLVQPGRSLKLSCAASDLTFSNYDMAWVRQTPTKGLEWVASISPNGGNTYYRDSVKGRFTVSRDNAKNSLYLQMDSLRSEDTATYYCARHLWFAYWGQGTLVTVSS
VL: DIQMTQSPSSMSASLGDRVTISCQASQDIGSNLIWFQQKPGKSPRPMIYYATHLADGVPSRFSGSRSGSDYSLTISSLESEDVADYHCLQYKQYPRTFGGGTKLELK
notes: as for B1
B4: W3162_1.145.10-z7-uAb.IgG1K (antibody, V domains shown)
VH: EVQLVESGGGLVQPGGSLRLSCAASDLTFSNYDMAWVRQAPGKGLEWVASISPSGGNTYYRDSVKGRFTISRDNAKNSLYLQMNSLRAEDTAVYYCARHLWFAYWGQGTLVTVSS
VL: DIQMTQSPSSLSASVGDRVTITCQASQDIGSNLIWFQQKPGKAPKPMIYYATHLADGVPSRFSGSRSGTDYTLTISSLQPEDFATYYCLQYKQYPRTFGGGTKVEIK
notes: Humanized; label says IgG1K; also called W145
B5: W3162-1.154.8 xAb.IgG1 (antibody, V domains shown)
VH: EVQLQQSGPEAGRPGSSVKISCKASGYTFTNYFMNWVKQSPGQGLEWIGRVDPENGRADYAEKFKKKATLTADTTSNTAYIHLSSLTSEDTATYFCARRAMDNYGFAYWGQGTLVTVSS
VL: EIMLTQSPTIMAASLGEKITITCSANSSLSYMYWFQQKSGASPKLWVHGTSNLASGVPDRFSGSGSGTSYYLTINTMEAEDAATYFCHHWSNTQWTFGGGTKLELK
notes: as for B1

Key:
[1] = target: T1, monkey CTLA-4 (Example 3 ELISA, …); experiment: ELISA, antibody titrated on cyno CTLA-4, OD450
Description: (§1) The antibodies were tested on CTLA-4-binding ELISA.
(§2) ELISA was used to test binding of anti-human CTLA-4 antibodies to human, murine and cynomolgus monkey CTLA-4 protein. A 96-well plate was coated with human CTLA-4.ECD-6×His (1.0 μg/mL), cynomoguls monkey CTLA-4.ECD-6×His (0.5 μg/mL) or mouse CTLA-4.ECD-6×His (0.5 μg/mL) at 4° C. for 16-20 hours. After 1 hour blocking with 2% BSA in DBPS, testing antibodies, as well as positive and negative control antibodies were added to the plates and incubated at room temperature for 1 hour. The binding of the antibodies to the plates were detected by HRP-conjugated goat anti-human IgG antibody (1:5000 dilution) with 1 hour incubation. The color was developed by dispensing 100 μL of TMB substrate for 8 mins, and then stopped by 100 μL of 2N HCl.

[2] = target: T2, human CTLA-4 (Example 3 ELISAs, …); experiment: ELISA, antibody titrated on human CTLA-4, OD450
Description: as §1, §2

[3] = target: T6, murine CTLA-4 (Example 3 ELISA, construct not stated) (mouse, UniProt P09793 36-161, limits assumed); experiment: ELISA, antibody titrated on mouse CTLA-4, OD450
T6 construct: also called mouse CTLA-4
Description: as §1, §2

human CTLA-4.ECD-6×His [4] = target: T3, human CTLA-4.ECD-6×His; experiment: SPR, antibody captured on anti-human Fc, CTLA-4 ECD as analyte, 1:1 fit
Description: The binding kinetics of four antibodies were measured using SPR. The antibodies were captured on immobilized goat anti-human Fc, and then human CTLA-4 ECD at different concentration was injected orderly. The sensorgrams for reference channel and buffer channel were subtracted from the test sensorgrams. The data was used to fit in 1:1 binding analysis.
(§3) Biacore T200, Series S Sensor Chip CMS, Amine Coupling Kit, and 10×HBS-EP were purchased from GE Healthcare. […] In immobilization step, the activation buffer was prepared by mixing 400 mM EDC and 100 mM NHS immediately prior to injection. The CM5 sensor chip was activated for 420 s with the activation buffer. 30 μg/mL of goat anti-human IgG Fcγ antibody in 10 mM NaAc (pH 4.5) was then injected to Fc1-Fc4 channels for 200 s at a flow rate of 5 μL/min. The chip was deactivated by 1 M ethanolamine-HCl (GE). Then the antibodies were captured on the chip. Briefly, 4 μg/mL antibodies in running buffer (HBS-EP+) was injected individually to Fc3 channel for 30 s at a flow rate of 10 μL/min. […] Regeneration buffer (10 mM Glycine pH 1.5) was injected at 10 μL/min for 30 s following every dissociation phase.

[5] = target: T2, human CTLA-4 (Example 3 ELISAs, …); experiment: competition ELISA: coated human CTLA-4, antibody mixed with biotinylated CD86, bound ligand detected with streptavidin-HRP [B) CD86]
Description: (§4) Both ELISA and FACS were used as the competition assays. In ELISA based competition assay, human CTLA-4 was coated on the plates, and the antibodies mixed with biotinylated ligands were added into the plate. The bound ligands were detected by HRP conjugated streptavidin.
Plates were coated with human CTLA-4.ECD.hFc (0.5 μg/mL) at 4° C. for 16-20 hours. […] After washing three times with PBS containing 0.05% Tween 20, biotinylated anti-His tag antibody was 1:2000 diluted and added. The plates were incubated at room temperature for 1 hour. The bound ligands were detected by HRP conjugated streptavidin (1:20000).

[6] = target: T4, biotinylated human CTLA-4 (Example 3 …); experiment: competition FACS: antibody mixed with biotinylated human CTLA-4, added to CD86-expressing cells (panel title W316-CHO-K1.hPro1.L2), bound CTLA-4 detected with streptavidin-PE [B]
Description: as §4
(§5) Then the mixtures of antibody and CTLA-4 were added to the cells and incubated for 1 hour at 4° C. The cells were washed two times with 200 μL FACS buffer (DPBS containing 1% BSA). Streptavidin PE 1 to 333 diluted in FACS buffer was added to the cells and incubated at 4° C. for 1 hour.

[7] = target: T6, murine CTLA-4 (Example 3 ELISA, …); experiment: ELISA; ELISA, murine CTLA-4
Description: as §1, §2

[8] = target: T5, full length human CTLA-4 on cells; experiment: FACS on CTLA-4-expressing cell line
human CTLA-4.ECD-6×His [9] = target: T3, human CTLA-4.ECD-6×His; experiment: SPR, antibody captured on anti-human Fc, CTLA-4.ECD-6×His as analyte, 1:1 fit
Description: as §3
(§6) The binding kinetics of these antibodies were measured using SPR. The antibodies were captured on immobilized anti-human Fc and CTLA-4-ECD at different concentration was injected orderly. The sensorgrams for reference channel and buffer channel were subtracted from the test sensorgrams. The data was used for 1:1 binding analysis on human, monkey and mouse CTLA-4.ECD-6×His.

[10] = target: T7, cynomolgus monkey CTLA-4 ECD-6×His (cynomolgus monkey); experiment: as above
T7 construct: extracellular domain; Bought; also called cynomoguls monkey CTLA-4.ECD-6×His
Description: as §3, §6

Murine CTLA-4.ECD-6×His = target: T8, Murine CTLA-4.ECD-6×His (mouse, UniProt P09793 36-161); experiment: as above
T8 construct: extracellular domain; Bought; also called mouse CTLA-4.ECD-6×His; mouse CTLA-4 ECD
Description: as §3, §6

[11] = target: T2, human CTLA-4 (Example 3 ELISAs, …); experiment: competition ELISA: coated human CTLA-4, antibody mixed with biotinylated CD80, bound ligand detected with streptavidin-HRP [A) CD80]
Description: as §4

[12] = target: T4, biotinylated human CTLA-4 (Example 3 …); experiment: competition FACS: antibody mixed with biotinylated human CTLA-4, added to CD80-expressing cells (panel title W316-CHO-K1.hPro1.L1), bound CTLA-4 detected with streptavidin-PE [A]
Description: as §4, §5

Row | Binder | EC50 (read off the curve) [1] [nM] | EC50 (read off the curve) [2] [nM] | binding result [3] | Kd (human CTLA-4.ECD-6×His [4]) [nM] | koff (human CTLA-4.ECD-6×His [4]) [s⁻¹] | kon (human CTLA-4.ECD-6×His [4]) [M⁻¹ s⁻¹] | IC50 (read off the curve) [5] [nM] | IC50 (read off the curve) [6] [nM] | EC50 [8] [nM] | Kd (human CTLA-4.ECD-6×His [9]) [nM] | koff (human CTLA-4.ECD-6×His [9]) [s⁻¹] | kon (human CTLA-4.ECD-6×His [9]) [M⁻¹ s⁻¹] | Kd [10] [nM] | koff [10] [s⁻¹] | kon [10] [M⁻¹ s⁻¹] | IC50 (read off the curve) [11] [nM] | other results
1 | B1 | ~0.1 | ~0.04 | no binding (tested: about 20 nM) | 0.1 | 6.97e-05 | 695000 | ~0.5 | ~20 | – | – | – | – | – | – | – | – | –
2 | B2 | ~0.1 | ~0.04 | – | 0.208 | 0.000148 | 709000 | ~0.8 | ~1 | 3.25 | 0.208 | 0.000148 | 709000 | 0.369 | 0.000107 | 291000 | ~0.7 | EC50 [7]: 0.01 nM; Kd (Murine CTLA-4.ECD-6×His): 0.906 nM; koff (Murine CTLA-4.ECD-6×His): 0.000228 s⁻¹; kon (Murine CTLA-4.ECD-6×His): 251000 M⁻¹ s⁻¹
3 | B3 | ~0.1 | ~0.01 | no binding (tested: about 20 nM) | 2.08 | 0.0165 | 7.93e+06 | ~0.4 | ~0.3 | – | 2.08 | 0.0165 | 7.93e+06 | 0.355 | 0.00377 | 1.06e+07 | ~0.3 | IC50 (read off the curve) [12]: ~1 nM
4 | B4 | – | – | – | – | – | – | – | – | – | 1.84 | 0.0135 | 7.37e+06 | 0.598 | 0.00271 | 4.52e+06 | – | –
5 | B5 | ~0.08 | ~0.05 | no binding (tested: about 20 nM) | 0.068 | 0.000125 | 1.85e+06 | ~0.4 | ~0.08 | 1.26 | 0.068 | 0.000125 | 1.85e+06 | 0.0872 | 0.000109 | 1.25e+06 | ~0.3 | –
